The values below are quoted from earlier work in paper PMC2659627 (Bioconjugate chemistry, 2008).

One series has as its target GRP-receptors. To be noted: read-out: IC50 (binding affinity to GRP-receptors); human PC-3 cell line.
The next series concerns PC-3 cells. To be noted: after 90 min incubation with PC-3 cells.

DPr = 2,3-diaminopropanoyl

As to “(DPr)-Ser-Ser-Ser-Gln-Trp-AlaVal-Gly-His-Leu-Met-(NH2) (DPr-SSSQWAVGHLM-NH2; also: Tc/Re tricarbonyl complex on DPr chelator)”, the “Uptake in normal pancreas” value was 16 ± 1.3 ID/g. Further, the IC50 (in general, the concentration needed to halve the response being measured) at GRP-receptors was around 0.86 nM. In addition, the Internalization with PC-3 cells was 80%.
With “DTPA-ACMpip-Tha^6-BAla^11-Tha^13-Nle^14-BBN[6-14]”, the “Uptake compared to DTPA-BBN[1-14]” value in the series on CA20948 pancreas tumor is listed as “two to three times higher”; in the series with PC-3 prostate tumors, 1.3 times.
